Test results published in the supplement of paper PMC9170038.

System: MS2 coat protein
Assay: apparent KD of MS2 coat protein; designed switch direction (-1 OFF switch, 1 ON switch): -1; higher = weaker reporter binding
Summary of the method: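 Three titration conditions were used: no input, 200 uM small-molecule ligand, and an oligonucleotide input. In each, SNAP-549-labelled MS2 coat protein was raised from 0.7 or 1.5 nM, doubling, to 3 µM over designed RNA switches transcribed on Illumina chips by stalled E. coli RNA polymerase. Curve fits of normalised cluster fluorescence gave values whose per-design median over clusters is the apparent KD.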

[1] = input ligand: microRNA oligo, concentration not stated
[2] = Eterna round: R95, input ligand: FMN 200 uM
[3] = Eterna round: R95, input ligand: microRNA oligo, concentration not stated
[4] = Eterna round: R95, input ligand: none

Sequence | apparent KD of MS2 coat protein (input ligand: FMN 200 uM) | apparent KD of MS2 coat protein (input ligand: none) | apparent KD of MS2 coat protein [1] | apparent KD of MS2 coat protein [2] | apparent KD of MS2 coat protein [3] | apparent KD of MS2 coat protein [4]
UCCUUACUGGUCAGGAUAUACAUUCGCUACUGGGUGUAGAAGGGACAUGAGGAUCACCCAUGUACGUUACAUCC [alecazam54e] (Eterna round: R97, puzzle: Brourd's mod of Exclusion 4) | 19.3 nM | 23.8 nM | – | – | – | –
UCCGUACAUGAGGAUCACCCAUGUCAGGAUAUGGCUUUUAGCGUAGACGCGCAAGAGGCCAGAAGGGACUUUUG [Eternabot (L2) Solution 6] (Eterna round: R97, puzzle: Exclusion 1) | 30.5 nM | 27.7 nM | – | – | – | –
AGUCGGCGAGGAUAUACAUGAGGAUCACCCAUGUGAGAGAUAAAAGUGAGUUAGACAAGUAGAAGGCGCUGACA [JL Lego Mod 9] (Eterna round: R96, puzzle: Exclusion 3) | – | – | 46.4 nM | – | – | –
AUCCGGCGUGUAGGAUAUGGUUCCGUUUCGGUUCCAGAAGGACAUGAGGAUCACCCAUGUGCCUGUCGUCGGUCGUCACCGGGC [salish99_ExNG1_r04_218] (Eterna round: R96, puzzle: Exclusion NG 1) | 43.7 nM | 16.5 nM | 13.4 nM | – | – | –
GCAAGCUUUUGCUCGUCUUACAUGAGGAUCACCCAUGUCGGGUGCUUGCUUCGGGCCCGGGCCUCCCGGGCCCGGGC [-43.3, -67 kcal, A 10%] (Eterna round: R97, puzzle: Sensor, turn-off variant 1) | 61.8 nM | 66.3 nM | – | – | – | –
ACAAGCUUUUAGAUUUUCAACAUGAGGAUCACCCAUGUUCGUCUUGGGCUAGUGCGAGUGCGGUGUACUCGUAUUAG [JL TOV1 3.83 sellena mod] (Eterna round: R97, puzzle: Sensor, turn-off variant 1) | 23.2 nM | 23.4 nM | – | – | – | –
UUGCUACCUUGGUGCUCUACAAGCUUUUUGCUCGUUUUAACAUGAGGAUCACCCAUGUCUAGUGGAUCUGAUCGGGU [JL ViennaUCT Isreen mod 2] (puzzle: Sensor v3, turn-off variant 2) | – | – | – | 91.3 nM | 212 nM | 97.9 nM
UUUUAAUAUGAAGGAUAUACUUAACAUGAGGAUCACCCAUGUGGUGUUGUGAGUGAGUGAGUUUAGUAGAAGGUCAAUUCUUUU [JMF's solution 89] (Eterna round: R96, puzzle: Exclusion NG 2) | 563 nM | 366 nM | 442 nM | – | – | –
CCGGAAGUACAGGAUAUCGUAACGGAGACGUUACGAGAAGGGUAUACAUGAGGAUCACCCAUGUGUCCUACCGG [Mat - Exclusion 6 - Eli Mod - D94] (puzzle: Exclusion 6) | – | – | – | 33.8 nM | 22 nM | 32.2 nM
AAUAAGUGAGGAUAUACGUCUGGACCCGGGAGGGCUAUAUAACAUGAGGAUCACCCAUGUAGAAGGCACAAUAA [Excls2-IV] (puzzle: Exclusion 2) | – | – | – | – | 16.2 nM | –
UUUUGGCAUGUAGGAUAUGGGUCCGAUUAGGAUUUAGAAGGACAUGAGGAUCACCCAUGUGCAUUUAAUUGGUCUUUAUUUUUU [EXclNG1-LROPPY14] (Eterna round: R96, puzzle: Exclusion NG 1) | – | – | 62.3 nM | – | – | –
AAGACACUUAGAGGAUAUGUGAAAGGAAGUGUAACAGAAGGCUAGGUGAGAACAUGAGGAUCACCCAUGUGAUCACAUGCCAAA [PowerStrip EXNG 1.27] (Eterna round: R96, puzzle: Exclusion NG 1) | 20 nM | 12.1 nM | 11.9 nM | – | – | –
CUGAGGUAGCGGUCCUAUAACAUGAGGAUCACCCAUGUACCUUGCUUCGAGCUUUUAGCUCGUCUUAUGAUUCUCGG [Mat - Sensor v3 - turn-off var 1 - JL Mod - D37] (puzzle: Sensor v3, turn-off variant 1) | – | – | – | 443 nM | 502 nM | 560 nM
CUCCGGCGUGUAGGAUAUGGAUCCGAUUAGGAUCCAGAAGGACAUGAGGAUCACCCAUGUACAUGUAAACAGUCAUCACCGGGC [salish99_ExNG1_r04_205] (Eterna round: R96, puzzle: Exclusion NG 1) | 131 nM | 21.4 nM | 18.2 nM | – | – | –
ACAUGUCAUUGAGGAUAUUGCACACAUGAGGAUCACCCAUGUAUACGGUUGCUCUUGCGUGAGUUCGAGAAGGCGAUGUACAUU [Ex NG2 #87] (Eterna round: R96, puzzle: Exclusion NG 2) | 356 nM | 159 nM | 168 nM | – | – | –
CCCGCAGGUUUUUUGCUCGACAUGAGGAUCACCCAUGUUGUAUGGGUUGUGUGUGUGUGGUGCAUAUAUAUGGUCCU [-25.6, -47.7 kcal, A 16%] (Eterna round: R97, puzzle: Sensor, turn-off variant 1) | 427 nM | 655 nM | – | – | – | –

Sequence | apparent KD of MS2 coat protein (input ligand: FMN 200 uM) | apparent KD of MS2 coat protein (input ligand: none) | apparent KD of MS2 coat protein [1] | apparent KD of MS2 coat protein [2] | apparent KD of MS2 coat protein [3] | apparent KD of MS2 coat protein [4]
GCUAGAGCAGGAUAUUUAAAUCCUCACAUGAGGAUCACCCAUGUAGUCGAAAGACUAAGAAGAGAAGGGCUCUAGC [Omei Ex5 E20] (Eterna round: R97, puzzle: Exclusion 5) | 951 nM | 230 nM | – | – | – | –
AGGGCUGCUCAGGAUAUCCGUAAAAGCCGAGAAGGAGAAGGGAGCACAUGAGGAUCACCCAUGUGAUCCGAAAA [Verila] (puzzle: Exclusion 6) | – | – | – | – | 19.7 nM | –
GUUUUCAGACGGAGAUCCUACAUGAGGAUCACCCAUGUCUCACAAGCUUUUUGCUCGUCUUAUACUCCUCUGUUCUC [Elimod 42 - Jieux - Sensor, turn-off variant 1] (Eterna round: R97, puzzle: Sensor, turn-off variant 1) | 83.5 nM | 106 nM | – | – | – | –
AUUGUAUAGGAAGGAUAUAGAAUAUUAUUUUAACAUGAGGAUCACCCAUGUAACCUUAUGUGUAGCUAGAAGGUCCGUUUAUUA [Title] (Eterna round: R96, puzzle: Exclusion NG 2) | – | – | 96.5 nM | – | – | –
AAAAGUUAAGGAUAUACUUGAGGAUCACCCAAGUAGGUGGCUUCAGCCGGAAACCGGCGUAGAAGGUAGCAGAA [Laentezabe] (Eterna round: R97, puzzle: Exclusion 3) | 54.9 nM | 56.3 nM | – | – | – | –
UGAUCUAGCGGAGGAUAUACAUGAGGAUCACCCAUGUAGACUCCAUGACCGUAGUCGUGGAGCGUGUAGAAGGCCGCUAGAUCU [JL ENG2 3.72] (Eterna round: R96, puzzle: Exclusion NG 2) | 19.2 nM | 12.2 nM | 10.3 nM | – | – | –
GUGUUACAUGAGGAUCACCCAUGUGAGGAUAUCAUGCUUCGUAGUAAACUACGAAGUGUGAGAAGGCAUAUGAC [Omei Ex1 E4] (Eterna round: R97, puzzle: Exclusion 1) | 50.7 nM | 56.5 nM | – | – | – | –
UUUUUGUCAGGAUAUGCGUAGUAGAACAAUAGUACUACUACGUAGAAGGGACAUGAGGAUCACCCAUGUUCCUC [Fiskers Ex 4 Super stable 44 mod 17] (puzzle: Exclusion 4) | – | – | – | – | 13.9 nM | –
GCCUAACAUGAGGAUCACCCAUGUAAGGAUAUGAUUAGUCGUUUGUAAGCAGCGCGACUCAGAAGGUACUUGGG [Eternabot (L1) Solution 34] (Eterna round: R97, puzzle: Exclusion 1) | 72 nM | 25.4 nM | – | – | – | –
AGGAUGUUAGGAUAUCGGAGAUGCGGGAGGAGGUGGAGGUACGAGAAGGAACAUGAGGAUCACCCAUGUGGAAG [JR_Exclu4_Sub045] (puzzle: Exclusion 4) | – | – | – | – | 18.4 nM | –
GAGUGACAUGAGGAUCACCCAUGUAAGGAUAUACGGUUGGUAGAGAGAGGGAGAAAGGGUAGAAGGUACGAAGG [JR_Exclu1_Sub053] (puzzle: Exclusion 1) | – | – | – | 45.5 nM | 44.1 nM | 101 nM
GGUUGGCGAGGAUAUACAUGAGGAUCACCCAUGUGAGUGAAAAAAGUGAGGAAGAAAAGUAGAAGGCGCUGACG [salish99_ex3_r3_008] (puzzle: Exclusion 3) | – | – | – | 288 nM | 254 nM | 196 nM
AGAGUACUGCGAGGAUAUACAUGAGGAUCACCCAUGUAAAAGUGUGAGGCAAAGCCUCACACUAUGUAGAAGGCGCAGUACUCA [Mat - Exclusion NG 2 - Mod of JL - D12] (Eterna round: R96, puzzle: Exclusion NG 2) | 19 nM | 18.2 nM | 9.76 nM | – | – | –
UUUAAGGUAAUUAAGAUCACAUGAGGAUCACCCAUGUAUAUAUAGGAUAUCAGCUCGUGUAGAGCUGAGAAGGAUAUAUACAUA [ExNG3/6-C3] (Eterna round: R96, puzzle: Exclusion NG 3) | 24.9 nM | 542 nM | 48.3 nM | – | – | –
GGUGGACAUGAGGAUCACCCAUGUGAGGAUAUCGGCUGGCUAGCGGCGGAUGGCUUCUCGAGAAGGCGCAUUGU [Exclusion 1 V82] (puzzle: Exclusion 1) | – | – | – | – | 67.7 nM | –
